The target of the assay is soluble recombinant cynomolgus TCR alpha/beta-zipper protein (cynomolgus/rhesus monkey). Description: ELISA, 2 µg/mL coated soluble recombinant cynomolgus TCR α/β-zipper protein, OD 450 nm.
Sequence of soluble recombinant cynomolgus TCR alpha/beta-zipper protein (cynomolgus/rhesus monkey) (TCR alpha, as listed by the source, chain 1 of 2): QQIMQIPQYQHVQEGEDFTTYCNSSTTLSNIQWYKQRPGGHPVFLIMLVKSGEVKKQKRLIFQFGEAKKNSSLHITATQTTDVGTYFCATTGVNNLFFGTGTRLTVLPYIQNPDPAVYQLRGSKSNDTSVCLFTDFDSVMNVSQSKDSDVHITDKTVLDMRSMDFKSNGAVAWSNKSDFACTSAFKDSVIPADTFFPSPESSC
Sequence of soluble recombinant cynomolgus TCR alpha/beta-zipper protein (cynomolgus/rhesus monkey) (TCR beta, as listed by the source, chain 2 of 2): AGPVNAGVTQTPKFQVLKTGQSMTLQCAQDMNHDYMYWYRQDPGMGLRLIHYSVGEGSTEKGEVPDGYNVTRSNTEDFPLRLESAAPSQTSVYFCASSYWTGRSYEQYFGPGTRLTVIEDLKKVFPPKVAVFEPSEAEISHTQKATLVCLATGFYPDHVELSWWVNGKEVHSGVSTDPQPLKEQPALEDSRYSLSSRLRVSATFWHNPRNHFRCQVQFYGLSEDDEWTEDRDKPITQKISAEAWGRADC

As to “anti-non-human primate/Rat TCRα/β antibody clone R73”, the EC50 (read off the curve) (usually the concentration giving half of the maximal effect) amounted to 0.1 nM.

For the origin of these results see US20190112392A1.
